Assay results reported in patent US20120270234A1, “DDR2 PROTEIN WITH ACTIVATED KINASE ACTIVITY AND PREPARATION METHOD THEREOF” (KOREA INSTITUTE OF SCIENCE AND TECHNOLOGY, priority 2003, published 2012).

How the values were obtained:
c-Src tyrosine kinase = molecular target: T1, c-Src tyrosine kinase (Mus musculus, UniProt P05480, P80A); experiment: tyrosine phosphorylation on co-expression with c-Src in insect cells, western blotting with phosphorylated tyrosine specific antibody; assay type: cell-based, Spodoptera frugiperda; details: glutathione bead purified, FIG. 2, FIG. 4
T1 construct: Full length human c-Src gene was per amplified from the vector of pUSE human O-Src wild (Upstate Biotechnology); host or cells: sf9 insect cells co-infected with two recombinant baculoviruses
Source text: The results shown in FIG. 4 were obtained by co-expressing a fused protein GST-DDR2 CKD, a fused protein (GST-DDR1b CKD) of the GST and the human DDR1b cytosolic tyrosine kinase domain, a fused protein (GST-Akt1) of the GST and the full-length mouse Akt1 kinase and a fused protein (GST-CDK4) of the GST and the full-length human CDK4 kinase with the c-Src protein without GST tagging in insect cells, respectively; purifying the respective expressed product using glutathione beads; performing SDS-PAGE; and performing the western blotting test using a phosphorylated tyrosine specific antibody and coomassie staining.
The results shown in FIG. 4 have been obtained by co-expressing the full-length c-Src protein together with the fused proteins, GST-DDR2 CKD, GST-DDR1b CKD, GST-Akt1 and GST-CDK4, respectively; in sf9 cells, then performing a western blotting test on each purified GST tagged protein using a phosphorylated tyrosine specific antibody. The presence of a similar amount of each purified GST tagged protein was shown by CBB staining.
GST tagged kinase defective DDR2 cytosolic domain (GST-kd-DDR2-CKD) with intact three tyrosines in the activation loop or with various phenylalanine mutations described in the text were co-expressed with Src in sf9 cells. GST tagged proteins were purified and the same amount of proteins estimated by CBB staining was used for western blotting using P-tyro antibody.
Phospho-tyrosine specific antibody was purchased from Cell Signaling Inc, USA. Specific antibodies to human c-Src, human c-Fyn, and she were obtained from SantaCruz, USA. Samples were boiled for 2 min in 1× lameli sample buffer, and loaded in 10% SDS-PAGE. Proteins were transferred to Immobilon-P membrane (Millipore) and blacked by 10% skim milk in TBS for an hour. The membrane was immunoblotted with antibodies for 2 hours and subsequently washed with 1×TBS five times. Then it was incubated with HRP conjugated secondary antibodies for an hour and protein bands were detected using chemiluminescence kit (Amersham).

sf9 cells = experiment: tyrosine phosphorylation by H2O2 processing of expressing insect cells, western blotting with phosphorylated tyrosine specific antibody; assay type: cell-based, Spodoptera frugoperda; details: 200 μM H2O2 for half of an hour; FIG. 2, FIG. 5
Protocol: The results shown in FIG. 5 were obtained by solely expressing the fused proteins, GST-DDR2 CKD, the GST-DDR1b CKD, the GST-CDK4 and the GST-CDK1, respectively, in insect cells; processing with 200 μM of H2O2 for half of an hour; purifying the respective expressed product using glutathione beads; performing the SDS-PAGE; and performing the western blotting test using an phosphorylated tyrosine specific antibody and coomassie staining.
The results shown in FIG. 5 have been obtained by solely expressing GST-DDR2 CKD, GST-DDR1b CKD, GST-CDK4 and GST-CDK1, respectively in sf9 cells; processing each expressed cells with H2O2 of 200 uM for half of an hour or not; and then purifying the GST tagged protein followed by a western blotting using a phosphorylated tyrosine specific antibody. The presence of a similar amount of each purified GST tagged protein was shown by CBB staining.
The recombinant baculoviruses having the GST-DDR2 CKD coding gene were transfected into sf9 insect cells, by setting MOU to 10 and the cells were cultured for 24 to 72 hours, to express the protein. […], at the concentration of 200 μM was added to the cultured cells. The cells were left for half of an hour, and collected. The collected cells were lysed and the GST-DDR2 CKD was purified from the expressed products, using the glutathione agarose bead column chromatography. The purified protein was subjected to an electrophoresis in 10% polyacrylamaid gel.
After completing the electrophoresis, the protein developed in the gel was transferred to nitrocellulose, and then subjected to a western blotting using a phosphorylated tyrosine specific antibody (Cell signaling Inc, USA), to measure the chemiluminescence signal using x-ray film. For the control, the chemical luminescence of the case without H2O2 processing was measured by the method as mentioned above.

Row | tyrosine phosphorylation induced by co-expression with c-Src (c-Src tyrosine kinase) | Molecule | tyrosine phosphorylation induced by H2O2 processing (sf9 cells)
1 | poorly induced or never induced | GST-CDK4: fused protein of the GST and the full-length human CDK4 kinase, control (protein, left off: a dimerising Fc or GST, fused protein of the GST and the full-length human CDK4 kinase, control) MATSRYEPVAEIGVGAYGTVYKARDPHSGHFVALKSVRVPNGGGGGGGLPISTVREVALLRRLEAFEHPNVVRLMDVCATSRTDREIKVTLVFEHVDQDLRTYLDKAPPPGLPAETIKDLMRQFLRGLDFLHANCIVHRDLKPENILVTSGGTVKLADFGLARIYSYQMALTPVVVTLWYRAPEVLLQSTYATPVDMWSVGCIFAEMFRRKPLFCGNSEADQLGKIFDLIGLPPEDDWPRDVSLPRGAFPPRGPRPVQSVVPEMEESGAQLLLEMLTFNPHKRISAFRALQHSYLHKDEGNPE | poorly induced or never induced
2 | poorly induced or never induced | GST-DDR1b CKD: fused protein of the GST and the human DDR1b cytosolic tyrosine kinase domain, control (protein, left off: a dimerising Fc or GST, fused protein of the GST and the human DDR1b cytosolic tyrosine kinase domain, control) VLEEELTVHLSVPGDTILINNRPGPREPPPYQEPRPRGNPPHSAPCVPNGSALLLSNPAYRLLLATYARPPRGPGPPTPAWAKPTNTQAYSGDYMEPEKPGAPLLPPPPQNSVPHYAEADIVTLQGVTGGNTYAVPALPPGAVGDGPPRVDFPRSRLRFKEKLGEGQFGEVHLCEVDSPQDLVSLDFPLNVRKGHPLLVAVKILRPDATKNARNDFLKEVKIMSRLKDPNIIRLLGVCVQDDPLCMITDYMENGDLNQFLSAHQLEDKAAEGAPGDGQAAQGPTISYPMLLHVAAQIASGMRYLATLNFVHRDLATRNCLVGENFTIKIADFGMSRNLYAGDYYRVQGRAVLPIRWMAWECILMGKFTTASDVWAFGVTLWEVLMLCRAQPFGQLTDEQVIENAGEFFRDQGRQVYLSRPPACPQGLYELMLRCWSRESEQRPPFSQLHRFLAEDALNTV | poorly induced or never induced
3 | poorly induced or never induced | GST-Akt1: fused protein of the GST and the full-length mouse Akt1 kinase, control (protein, left off: a dimerising Fc or GST, fused protein of the GST and the full-length mouse Akt1 kinase, control) MNDVAIVKEGWLHKRGEYIKTWRPRYFLLKNDGTFIGYKERPQDVDQRESPLNNFSVAQCQLMKTERPRPNTFIIRCLQWTTVIERTFHVETPEEREEWATAIQTVADGLKRQEEETMDFRSGSPSDNSGAEEMEVSLAKPKHRVTMNEFEYLKLLGKGTFGKVILVKEKATGRYYAMKILKKEVIVAKDEVAHTLTENRVLQNSRHPFLTALKYSFQTHDRLCFVMEYANGGELFFHLSRERVFSEDRARFYGAEIVSALDYLHSEKNVVYRDLKLENLMLDKDGHIKITDFGLCKEGIKDGATMKTFCGTPEYLAPEVLEDNDYGRAVDWWGLGVVMYEMMCGRLPFYNQDHEKLFELILMEEIRFPRTLGPEAKSLLSGLLKKDPTQRLGGGSEDAKEIMQHRFFANIVWQDVYEKKLSPPFKPQVTSETDTRYFDEEFTAQMITITPPDQDDSMECVDSERRPHFPQFSYSASGTA | –
